# Measurements as given in paper PMC8615095.
# pEC50: −log10 of the molar value. Read-outs that look alike come from different tables or passages of the source.
# Legend:
# [1] = target: membrane-bound IgE-Fc (IgE-Fc-B-cell receptor: 3xFLAG-Cε2-Cε3-Cε4-EMPD-transmembrane-intracellular domain); assay: flow cytometry on cells; graded concentrations of His-tagged BiTE on Ramos-Fcε (doxycycline-induced), empty-vector Ramos, Jurkat E6-1 or TIB-153 cells, 30 min on ice in 2% BSA-PBS; detected with anti-pentahis-AlexaFluor 488 (Ramos) or 647 (Jurkat, TIB-153); EC50 from geometric mean fluorescence
# [2] = target: membrane-bound IgE-Fc (IgE-Fc-B-cell receptor: 3xFLAG-Cε2-Cε3-Cε4-EMPD-transmembrane-intracellular domain)
# [3] = target: membrane-bound IgE-Fc (IgE-Fc-B-cell receptor: 3xFLAG-Cε2-Cε3-Cε4-EMPD-transmembrane-intracellular domain); remark: listed apart in the source
# [4] = target: membrane-bound IgE-Fc (IgE-Fc-B-cell receptor: 3xFLAG-Cε2-Cε3-Cε4-EMPD-transmembrane-intracellular domain); remark: listed apart in the source
# [5] = target: CD19 (Homo sapiens (endogenous, Ramos EHRB)) (UniProt P15391); assay: flow cytometry on cells; graded concentrations of His-tagged BiTE on Ramos-Fcε (doxycycline-induced), empty-vector Ramos, Jurkat E6-1 or TIB-153 cells, 30 min on ice in 2% BSA-PBS; detected with anti-pentahis-AlexaFluor 488 (Ramos) or 647 (Jurkat, TIB-153); EC50 from geometric mean fluorescence
# [6] = target: CD19 (Homo sapiens (endogenous, Ramos EHRB)) (UniProt P15391); assay: as above; remark: listed apart in the source
# [7] = target: CD19 (Homo sapiens (endogenous, Ramos EHRB)) (UniProt P15391)
# Sequence of CD19 (Homo sapiens (endogenous, Ramos EHRB)) (P15391 20-556): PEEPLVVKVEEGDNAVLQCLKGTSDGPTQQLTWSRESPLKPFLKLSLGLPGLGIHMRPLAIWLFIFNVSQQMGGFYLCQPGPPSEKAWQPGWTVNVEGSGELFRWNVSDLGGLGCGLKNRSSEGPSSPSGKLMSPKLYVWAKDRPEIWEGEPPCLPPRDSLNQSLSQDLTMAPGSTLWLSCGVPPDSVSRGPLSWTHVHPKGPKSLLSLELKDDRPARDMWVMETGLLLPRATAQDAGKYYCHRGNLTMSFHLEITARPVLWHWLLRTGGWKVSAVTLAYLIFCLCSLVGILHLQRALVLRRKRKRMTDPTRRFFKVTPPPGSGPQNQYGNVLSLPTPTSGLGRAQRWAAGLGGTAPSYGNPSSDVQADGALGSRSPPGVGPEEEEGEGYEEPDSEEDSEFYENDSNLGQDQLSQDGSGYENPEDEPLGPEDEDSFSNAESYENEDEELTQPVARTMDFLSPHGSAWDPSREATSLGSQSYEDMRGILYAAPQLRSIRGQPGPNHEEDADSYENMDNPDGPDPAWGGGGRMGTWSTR
Substance,pEC50 [1],"IL-2 promoter-luciferase reporter in CD3-overexpressing T cells, fold activation with Ramos-Fcε target cells, E:T 2.5, at 400 pM [2]","NFAT-luciferase reporter in CD3-overexpressing T cells, fold induction with Ramos-Fcε target cells, E:T 5:1, at 80 pM [4]",other results
MEDI4212-based BiTE (anti-IgE scFv of MEDI4212 fused to anti-CD3ε scFv) (bispecific antibody),9.40,4 fold,9 fold,"NFAT-luciferase reporter in CD3-overexpressing T cells, fold activation with Ramos-Fcε target cells, E:T 1:1, at 400 pM [3]: 10 fold"
"blinatumomab (anti-CD19 scFv fused to anti-CD3ε scFv, with C-terminal 8-His-tag) (bispecific antibody)",–,–,–,"pEC50 [5]: 8.60; pEC50 [6]: 8.30; NFAT-luciferase reporter in CD3-overexpressing T cells with Ramos-Fcε target cells, E:T 5:1, dilutions of blinatumomab from 1 nM; EC50 of T-cell activation [7]: 0.014 nM"
ligelizumab-based BiTE (anti-IgE scFv of ligelizumab fused to anti-CD3ε scFv) (bispecific antibody),9.40,–,–,"IL-2 promoter-luciferase reporter in CD3-overexpressing T cells, fold specific activation with Ramos-Fcε target cells, E:T 2.5, at 2 nM [2]: 7 fold; NFAT-luciferase reporter in CD3-overexpressing T cells, fold activation with Ramos-Fcε target cells, E:T 1:1, 400 pM (59-fold) to 2000 pM [3]: 162 fold; NFAT-luciferase reporter in CD3-overexpressing T cells, fold induction with Ramos-Fcε target cells, E:T 5:1, at 400 pM [4]: 47 fold"
omalizumab-based BiTE (anti-IgE scFv of omalizumab fused to anti-CD3ε scFv) (bispecific antibody),8.70,2 fold,11 fold,"NFAT-luciferase reporter in CD3-overexpressing T cells, fold activation with Ramos-Fcε target cells, E:T 1:1, at 80 pM [3]: 5 fold"
quilizumab-based BiTE (anti-IgE EMPD scFv of quilizumab fused to anti-CD3ε scFv) (bispecific antibody),7.40,–,–,–
